Consider six molecules from patent publication US20110195021A1 (IMMUNOGEN, published 2011).

For experiment [1], the target named is T1, human CD20 (human, UniProt P11836 1-297).
T1 construct: whole, on cells; also called wild type CD20; MS4A1
T1 sequence (looked up): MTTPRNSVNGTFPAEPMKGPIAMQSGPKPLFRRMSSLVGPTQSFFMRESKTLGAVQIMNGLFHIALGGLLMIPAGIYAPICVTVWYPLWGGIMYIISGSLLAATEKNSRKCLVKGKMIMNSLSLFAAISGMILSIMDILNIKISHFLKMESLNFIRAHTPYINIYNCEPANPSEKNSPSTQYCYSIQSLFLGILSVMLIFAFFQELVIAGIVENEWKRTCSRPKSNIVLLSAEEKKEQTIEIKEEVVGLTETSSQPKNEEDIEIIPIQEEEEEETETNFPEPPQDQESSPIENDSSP
Put plainly: flow cytometry on 300-19 cells transfected with wild type human CD20. In general terms: Flow cytometry measures light scatter and fluorescence of single cells or particles in a stream.

For experiment [2], the target named is human CD20 (human) (UniProt P11836). Put plainly: cell-based or functional assay.
For experiment [3] the target is unchanged. The experiment in a line: flow cytometry on SU-DHL-4 cells.
Experiment [4] concerns the target T1, human CD20. Put plainly: flow cytometry on 300-19 cells transfected with wild type human CD20. This is another data set of the same source.
Another experiment concerns the target T2, CD20 N163D (human, UniProt P11836 1-297).
T2 construct: whole, on cells; Stably expressed on 300-19 cells
T2 sequence (looked up): T1 sequence (looked up) with N163D
Put plainly: flow cytometry on 300-19 cells transfected with human CD20 N163D.

Experiment [5] deals with T1, human CD20. The experiment in a line: flow cytometry on 300-19 cells transfected with wild type human CD20. The source holds these as a separate data set.
The target in a further experiment is T3, CD20-A170S P172S variant (human, UniProt P11836 1-297).
T3 construct: Stably expressed on 300-19 cells; also called CD20-AP; CD20AP
T3 chain: T1 sequence (looked up) with A170S, P172S
Put plainly: flow cytometry on 300-19 cells transfected with human CD20 A170S P172S.

Experiment [6] addresses T1, human CD20. Put plainly: flow cytometry on BJAB cells, apparent dissociation constant from the MFI dose-response curve; muCD20-6 on BJAB cells.
Procedure: (§1) Binding specificity was tested by flow cytometry using purified antibodies. […] Then, the cells were pelleted, washed, and incubated for 1 h with 100 μL of FITC-conjugated goat anti-mouse IgG-antibody (such as is obtainable from, for example Jackson Laboratory, 6 μg/mL in FACS buffer). The cells were pelleted again, washed with FACS buffer and resuspended in 200 μL of PBS containing 1% formaldehyde. Samples were acquired using a FACSCalibur flow cytometer with the HTS multiwell sampler or a FACS array flow cytometer and analyzed using CellQuest Pro (all from BD Biosciences, San Diego, US).
(§2) Data analysis was performed using CellQuest Pro (BD Biosciences, San Diego, US) and for each sample the mean fluorescence intensity for FL1 (MFI) was exported and plotted against the antibody concentration in a semi-log plot.
For experiment [7], the target named is T1, human CD20. The experiment in a line: flow cytometry on BJAB cells, apparent Kd.
Procedure: as §1, §2
The value for the apparent dissociation constant (Kd) of each antibody was calculated using GraphPad Prism v4 (GraphPad software, San Diego, Calif.).
Experiment [8] deals with T1, human CD20. The experiment in a line: flow cytometry on BJAB cells, apparent dissociation constant from the MFI dose-response curve; muCD20-7 on BJAB cells.
Procedure: as §1, §2
A further experiment concerns the target T4, CD20 N163D N166D (human, UniProt P11836 1-297).
T4 construct: whole, on cells; Stably expressed on 300-19 cells; also called CD20-NNDD
T4 sequence (looked up): T1 sequence (looked up) with N163D, N166D
The experiment in a line: flow cytometry on 300-19 cells transfected with human CD20 N163D N166D.

Changes are numbered by the printed parent chain. Where two headings read alike, the source gives them in different places.

As usually defined, the EC50 (read off the curve) is the concentration at which the effect is half-maximal. Lower therefore signals an effect from little substance. As for B1 (antibody), the EC50 (read off the curve) with human CD20 [1] came to 0.4 nM.
In the case of rituximab-SMCC-[^3H]DM1 (antibody), the IC50, cell-based viability assay, CD20-positive SU-DHL-4 cells with human CD20 (human) [2] worked out at 0.24 nM. The molecule further displayed an EC50 (read off the curve) in the experiment with human CD20 (human) [3] of 1 nM.

B1: rituximab (antibody, V domains shown)
VH: QVQLQQPGAELVKPGASVKMSCKASGYTFTSYNMHWVKQTPGRGLEWIGAIYPGNGDTSYNQKFKGKATLTADKSSSTAYMQLSSLTSEDSAVYYCARSTYYGGDWYFNVWGAGTTVTVSA
VL: QIVLSQSPAILSASPGEKVTMTCRASSSVSYIHWFQQKPGSSPKPWIYATSNLASGVPVRFSGSGSGTSYSLTISRVEAEDAATYYCQQWTSNPPTFGGGTKLEIK
With B1, the “EC50 (read off the curve)” value in the experiment with human CD20 [4] was ~0.5 nM.

B2: muCD20-6 (antibody, mouse IgG1, kappa, V domains shown)
VH: QIQLVQSGPELKKPGETVKISCKASGYKFTNVGMNWVKQVPGKGLKWMGWINTYTGEPAYADDFKGRFVFSLETSASAAFLQINNLKNEDTATYFCARGAYYRYDLGMDYWGQGTSVTVSS
VL: DIVLTQSPASLAVSLGQRAIISCRASESVDNFGNSFMHWYQQKPGQPPTLLIYRASNLESGIPARFSGSGSRTDFTLTVNPVEADDIATYYCQQSYEDPFTFGAGTKLELKR
notes: Murine monoclonal antibody purified from hybridoma (ATCC PTA-10486); also called murine CD20-6
B2: the binding result with CD20 N163D is “no binding (tested: 10^-7.5 M (about 3x10^-8 M))”; with CD20-A170S P172S variant, “binds”. For the same molecule, in the experiment with human CD20 [5], the “EC50 (read off the curve)” value was ~0.8 nM. In addition, the Kd in the experiment with human CD20 [6] came out at 0.4 nM.

B3: muCD20-7 (antibody, mouse IgG1, kappa, V domains shown)
VH: B2 VH with I2L, K28S, V32Y, V40A, A59S, V69A, A78T, F80Y, N84S
VL: B2 VL with I20T, E27G, N31S, T49K, I62V, S69G, V79I, Y91F, K111M
notes: Murine monoclonal antibody purified from hybridoma (ATCC PTA-10487); also called murine CD20-7
In the case of B3, the Kd worked out at 0.4 nM in the experiment with human CD20 [7] and 0.3 nM in the experiment with human CD20 [8]. Moreover, the binding result was “no binding (tested: 10^-7.5 M (about 3x10^-8 M))” with CD20 N163D, “binds” with CD20-A170S P172S variant and “no binding (tested: 10^-7.5 M (about 3x10^-8 M))” with CD20 N163D N166D. Besides, the “EC50 (read off the curve)” value with human CD20 [5] was ~0.5 nM.

B4: chCD20-7 (antibody, V domains shown)
VH: B2 VH with I2L, K28S, V32Y, V40A, A59S, V69A, A78T, F80Y, N84S
VL: B2 VL with I20T, E27G, N31S, T49K, I62V, S69G, V79I, Y91F, K111M
notes: Chimeric antibody: CD20-7 variable regions cloned into pchCD20-7HCN and pchCD20-7LCZ and expressed in HEK-293T cells; also called chimeric CD20-7
Consider B4, for which, in the experiment with human CD20 [7], the Kd was found to be 0.5 nM.
